# T1: rEAAT3/EAAC1 (rat excitatory amino acid transporter 3), full length, expressed in HEK 293T cells (rat, UniProt P51907 1-523)
# T1 sequence (looked up): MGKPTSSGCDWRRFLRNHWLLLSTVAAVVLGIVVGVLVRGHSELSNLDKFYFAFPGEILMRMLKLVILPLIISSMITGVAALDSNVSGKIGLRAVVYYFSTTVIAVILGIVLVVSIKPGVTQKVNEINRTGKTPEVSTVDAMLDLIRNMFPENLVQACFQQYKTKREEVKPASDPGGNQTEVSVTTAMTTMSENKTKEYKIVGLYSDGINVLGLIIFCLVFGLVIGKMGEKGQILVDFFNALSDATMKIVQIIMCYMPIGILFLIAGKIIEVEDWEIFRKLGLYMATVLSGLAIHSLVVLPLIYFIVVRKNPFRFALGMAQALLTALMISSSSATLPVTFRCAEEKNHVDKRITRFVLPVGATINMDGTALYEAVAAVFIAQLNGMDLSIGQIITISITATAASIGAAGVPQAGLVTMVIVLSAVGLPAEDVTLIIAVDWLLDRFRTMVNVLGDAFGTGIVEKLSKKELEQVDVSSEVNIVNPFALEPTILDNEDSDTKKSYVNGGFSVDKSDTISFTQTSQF
# B1: GTRAP3-18 (Glutamate Transporter Associated Protein of EAAT3), HA-tagged, expressed in HEK 293T cells (other, not shown: small tags and cut ends)
# chain: MDVNLAPLRAWDDFFPGSDRFARPDFRDISKWNNRVVSNLLYYQTNYLVVAAMMISVVGFLSPFNMILGGIIVVLVFTGFVWAAHNKDILRRMKKQYPTAFVMVVMLASYFLISMFGGVMVFVFGITFPLLLMFIHASLRLRNLKNKLENKMEGIGLKKTPMGIILDALEQQEDSINKFADYISKARE
# Target: T1, rEAAT3/EAAC1 (rat excitatory amino acid …)
# Test: cell-based or functional assay
binder,measurement,value
B1,"decrease in Na+-dependent L-[3H]-glutamate uptake in HEK 293T cells, co-transfection at equal ratio",~20%
